Test results published in patent US20250283030A1, “Biosynthesis of Phenylpropanoid Compounds” (BGENE GENETICS, priority 2021, published 2025).
Entries after “also recorded” stand apart in the source; their conditions may differ.

Experiments:
[1] = system: wild-type Pseudomonas putida AroF-I enzyme; experiment: Enzymatic activity assay (PEP consumption by HPLC), inhibition by tyrosine; assay type: biochemical; conditions: 1 mM tyrosine, 300 μM PEP, 300 μM E4P, 60 minutes at 30° C., FIG. 1
Experimental: The activity of the enzymes is measured by monitoring the disappearance of the substrate using HPLC (High Pressure Liquid Chromatography) detection. The reaction is performed in a final volume of 200 μl with 40 mM of phosphate buffer, pH 7, 300 μM of phospho(enol)pyruvate (PEP), 20 μg of purified enzyme, 1 mM of tyrosine (or another aromatic amino acid) or 3 μM of HCl, the volume being completed with ultrapure water. After pre-incubation for 2 minutes at 30° C., the reaction is initiated by adding 300 μM of erythrose-4-phosphate […]) and the reaction mixture is incubated for 60 minutes at 30° C. Finally, the mixture is heated for 5 minutes at 80° C. in order to stop the reaction and precipitate the proteins. The enzymatic activity assays are firstly centrifuged for 10 minutes at 15 000×g in order to precipitate the proteins. The supernatant obtained is filtered over a 0.22 μm membrane before HPLC analysis. The method used is described below: • System: Agilent 1100 (Agilent) • Column: Luna OMEGA polar C18 (Phenomenex) • Mobile phase: 1 mM phosphoric acid • Flow rate: 0.3 ml/min • UV detection: 220 nm • Injection: 5 μl • Duration of analysis: 15 minutes In order to quantify the amount of PEP present in the samples, a series of standards is analyzed, with PEP concentrations from 0.1 mM to 1 mM.

AroF-I enzyme = experiment: Enzymatic activity assay (PEP consumption by HPLC) of AroF-I mutants with or without tyrosine; assay type: biochemical, Pseudomonas putida; conditions: for resistance of the enzyme to inhibition by tyrosine: 1 mM tyrosine, PEP consumed compared to AroF-I WT, FIG. 2-4; for enzymatic activity (PEP consumed): in the presence or absence of tyrosine, FIG. 3
Experimental: In order to express and purify the AroF-I enzyme and the mutants derived therefrom, the corresponding genes are cloned in a pET28_b(+) plasmid with a His tag grafted to the N-terminal part of the protein (upstream of the gene's ATG).
The activity of the enzymes is measured by monitoring the disappearance of the substrate using HPLC (High Pressure Liquid Chromatography) detection.
The reaction is performed in a final volume of 200 μl with 40 mM of phosphate buffer, pH 7, 300 μM of phospho(enol)pyruvate (PEP), 20 μg of purified enzyme, 1 mM of tyrosine (or another aromatic amino acid) or 3 μM of HCl, the volume being completed with ultrapure water.
After pre-incubation for 2 minutes at 30° C., the reaction is initiated by adding 300 μM of erythrose-4-phosphate (E4P) and the reaction mixture is incubated for 60 minutes at 30° C.
Finally, the mixture is heated for 5 minutes at 80° C. in order to stop the reaction and precipitate the proteins.
The enzymatic activity assays are firstly centrifuged for 10 minutes at 15 000×g in order to precipitate the proteins. The supernatant obtained is filtered over a 0.22 μm membrane before HPLC analysis.
The method used is described below: • System: Agilent 1100 (Agilent) • Column: Luna OMEGA polar C18 (Phenomenex) • Mobile phase: 1 mM phosphoric acid • Flow rate: 0.3 ml/min • UV detection: 220 nm • Injection: 5 μl • Duration of analysis: 15 minutes
In order to quantify the amount of PEP present in the samples, a series of standards is analyzed, with PEP concentrations from 0.1 mM to 1 mM.

Molecule: N[C@@H](Cc1ccc(O)cc1)C(=O)O [tyrosine]
- activity of the wild-type AroF-I enzyme in the presence of tyrosine [1]: inhibited

B1: P160L: Pseudomonas putida AroF-I DAHP synthase with P160L mutation, SEQ ID NO:2 (protein, listed as Pseudomonas putida)
chain: LAAGTRDLTSNTMADLPIDDLNVASNETLITPDQLKKEIPLSAKALQTVTAGREVVRNILDGKDHRLFVVVGPCSIHDIKAAHEYAERLKVLAEEVSDTLYLVMRVYFEKPRTTVGWKGLINDPYLDDSFKIQDGLHIGRKLLLDLAEMGLPTATEALDLISPQYLQDLISWSAIGARTTESQTHREMASGLSSAVGFKNGTDGGLTVAINALQSVSKPHRFLGINQEGGVSIVTTKGNPYGHVVLRGGNGKPNYDSVSVALCEQDLAKAKIKANIMVDCSHANSNKDPALQPLVMENVANQILEGNQSIIGLMVESHLNWGCQSIPKNLDDLQYGVSITDACIDWSATEKTLRSMHAKLKDVLPQRKRG
- resistance of the enzyme to inhibition by tyrosine (AroF-I enzyme): partially resistant

B2: P160L/G191K: Pseudomonas putida AroF-I DAHP synthase with P160L/G191K double mutation (protein)
chain: LAAGTRDLTSNTMADLPIDDLNVASNETLITPDQLKKEIPLSAKALQTVTAGREVVRNILDGKDHRLFVVVGPCSIHDIKAAHEYAERLKVLAEEVSDTLYLVMRVYFEKPRTTVGWKGLINDPYLDDSFKIQDGLHIGRKLLLDLAEMGLPTATEALDLISPQYLQDLISWSAIGARTTESQTHREMASKLSSAVGFKNGTDGGLTVAINALQSVSKPHRFLGINQEGGVSIVTTKGNPYGHVVLRGGNGKPNYDSVSVALCEQDLAKAKIKANIMVDCSHANSNKDPALQPLVMENVANQILEGNQSIIGLMVESHLNWGCQSIPKNLDDLQYGVSITDACIDWSATEKTLRSMHAKLKDVLPQRKRG
- enzymatic activity (PEP consumed) (AroF-I enzyme): no longer has any activity

B3: P160L/S193A: Pseudomonas putida AroF-I DAHP synthase with P160L/S193A double mutation, SEQ ID NO:4 (protein, listed as Pseudomonas putida)
chain: LAAGTRDLTSNTMADLPIDDLNVASNETLITPDQLKKEIPLSAKALQTVTAGREVVRNILDGKDHRLFVVVGPCSIHDIKAAHEYAERLKVLAEEVSDTLYLVMRVYFEKPRTTVGWKGLINDPYLDDSFKIQDGLHIGRKLLLDLAEMGLPTATEALDLISPQYLQDLISWSAIGARTTESQTHREMASGLASAVGFKNGTDGGLTVAINALQSVSKPHRFLGINQEGGVSIVTTKGNPYGHVVLRGGNGKPNYDSVSVALCEQDLAKAKIKANIMVDCSHANSNKDPALQPLVMENVANQILEGNQSIIGLMVESHLNWGCQSIPKNLDDLQYGVSITDACIDWSATEKTLRSMHAKLKDVLPQRKRG
- resistance of the enzyme to inhibition by tyrosine (AroF-I enzyme): virtually completely resistant; also recorded: synergistic effect
- enzymatic activity (PEP consumed) (AroF-I enzyme): restored virtually all the enzymatic activity

B4: P160L/Q164A: Pseudomonas putida AroF-I DAHP synthase with P160L/Q164A double mutation, SEQ ID NO:3 (protein, listed as Pseudomonas putida)
chain: LAAGTRDLTSNTMADLPIDDLNVASNETLITPDQLKKEIPLSAKALQTVTAGREVVRNILDGKDHRLFVVVGPCSIHDIKAAHEYAERLKVLAEEVSDTLYLVMRVYFEKPRTTVGWKGLINDPYLDDSFKIQDGLHIGRKLLLDLAEMGLPTATEALDLISPAYLQDLISWSAIGARTTESQTHREMASGLSSAVGFKNGTDGGLTVAINALQSVSKPHRFLGINQEGGVSIVTTKGNPYGHVVLRGGNGKPNYDSVSVALCEQDLAKAKIKANIMVDCSHANSNKDPALQPLVMENVANQILEGNQSIIGLMVESHLNWGCQSIPKNLDDLQYGVSITDACIDWSATEKTLRSMHAKLKDVLPQRKRGLAAGTRDLTSNTMADLPIDDLNVASNETLITPDQLKKEIPLSAKALQTVTAGREVVRNILDGKDHRLFVVVGPCSIHDIKAAHEYAERLKVLAEEVSDTLYLVMRVYFEKPRTTVGWKGLINDPYLDDSFKIQDGLHIGRKLLLDLAEMGLPTATEALDLISPAYLQDLISWSAIGARTTESQTHREMASGLSSAVGFKNGTDGGLTVAINALQSVSKPHRFLGINQEGGVSIVTTKGNPYGHVVLRGGNGKPNYDSVSVALCEQDLAKAKIKANIMVDCSHANSNKDPALQPLVMENVANQILEGNQSIIGLMVESHLNWGCQSIPKNLDDLQYGVSITDACIDWSATEKTLRSMHAKLKDVLPQRKRG
- resistance of the enzyme to inhibition by tyrosine (AroF-I enzyme): slightly improved
